The values that follow come from patent publication US20200231956.

This data set addresses dipeptides with a proline at the second position.

B1: aminopeptidase T from Thermus aquaticus, with a Cys added at the N-terminus and a 6xHis at the C-terminus (protein)
chain: MCDAFTENLNKLAELAIRVGLNLEEGQEIVATAPIEAVDFVRLLAEKAYENGASLFTVLYGDNLIARKRLALVPEAHLDRAPAWLYEGMAKAFHEGAARLAVSGNDPKALEGLPPERVGRAQQAQSRAYRPTLSAITEFVTNWTIVPFAHPGWAKAVFPGLPEEEAVQRLWQAIFQATRVDQEDPVAAWEAHNRVLHAKVAFLNEKRFHALHFQGPGTDLTVGLAEGHLWQGGATPTKKGRLCNPNLPTEEVFTAPHRERVEGVVRASRPLALSGQLVEGLWARFEGGVAVEVGAEKGEEVLKKLLDTDEGARRLGEVALVPADNPIAKTGLVFFDTLFDENAASHIAFGQAYAENLEGRPSGEEFRRRGGNESMVHVDWMIGSEEVDVDGLLEDGTRVPLMRRGRWVIHHHHHH
For B1, the “aminopeptidase assay, cleavage of the N-terminal amino acid” value is given as “TaqAPT cleaves dipeptides even with a proline at the second position”.
